# Measured values from article PMC12312913.
# Key:
# Assay in all cases: BLI; Octet R2; His6-tagged OMP-TF bound to rabbit anti-His mAb and tethered to ProA biosensors; analyte: crude cell lysate of J-Flag at different concentrations; PBS with 0.1% BSA and 0.01% Tween-20; double reference subtraction (buffer and TF sensor); 1:1 binding model
# [1] = molecular target: BtuB fused to TF and His tag (S. Typhimurium) (UniProt P37409)
# [2] = molecular target: OmpC fused to TF and His tag (S. Typhimurium) (UniProt P0A263)
# [3] = molecular target: OmpX fused to TF and His tag (S. Typhimurium)
# OmpC fused to TF and His tag (S. Typhimurium), sequence (P0A263 22-378): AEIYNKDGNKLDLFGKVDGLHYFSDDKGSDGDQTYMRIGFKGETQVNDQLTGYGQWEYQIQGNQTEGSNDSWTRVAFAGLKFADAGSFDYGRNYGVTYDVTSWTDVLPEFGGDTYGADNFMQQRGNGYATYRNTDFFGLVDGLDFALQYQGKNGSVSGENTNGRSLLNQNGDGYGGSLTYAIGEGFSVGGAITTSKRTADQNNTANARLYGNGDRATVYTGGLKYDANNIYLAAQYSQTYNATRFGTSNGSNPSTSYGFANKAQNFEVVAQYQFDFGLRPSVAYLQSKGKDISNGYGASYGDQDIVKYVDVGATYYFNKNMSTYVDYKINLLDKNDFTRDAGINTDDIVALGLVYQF
# BtuB fused to TF and His tag (S. Typhimurium), sequence (P37409 21-614): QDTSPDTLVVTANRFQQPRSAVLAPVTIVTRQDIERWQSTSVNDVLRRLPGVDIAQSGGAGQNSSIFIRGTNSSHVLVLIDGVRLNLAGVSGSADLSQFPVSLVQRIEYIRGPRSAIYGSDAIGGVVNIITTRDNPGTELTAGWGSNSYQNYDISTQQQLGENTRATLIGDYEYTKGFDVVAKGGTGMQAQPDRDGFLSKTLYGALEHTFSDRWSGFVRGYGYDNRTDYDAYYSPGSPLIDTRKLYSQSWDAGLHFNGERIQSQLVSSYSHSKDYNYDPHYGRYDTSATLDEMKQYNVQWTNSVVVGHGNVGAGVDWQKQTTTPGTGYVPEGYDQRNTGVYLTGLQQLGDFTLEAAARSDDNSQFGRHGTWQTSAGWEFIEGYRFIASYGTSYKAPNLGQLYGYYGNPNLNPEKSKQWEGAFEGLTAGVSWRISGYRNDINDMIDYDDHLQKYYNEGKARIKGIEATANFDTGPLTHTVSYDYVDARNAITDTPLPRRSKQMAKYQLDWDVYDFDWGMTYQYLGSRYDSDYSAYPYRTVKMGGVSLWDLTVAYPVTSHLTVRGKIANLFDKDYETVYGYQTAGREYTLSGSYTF
substance,measurement,setting,value
Gifsy-1 central tail tip J protein with Flag tag (natural protein),Kd,[1],0.00597 nM
same,Kd,[2],0.341 nM
same,Kd,[3],70 nM
